Data reported in PMC8361300.
Blank lines part the entries; values can stand above or below the substance they belong to.

Tests used:
[1] = target: Nucleobindin-2 from Gallus gallus (ggNucb2) (Gallus gallus); assay: AUC; sedimentation velocity, 50,000 rpm, 20 °C, buffer C (20 mM Tris-HCl, 150 mM NaCl, pH 7.5) with 100 µM ZnCl2 (also 200 and 300 µM); protein 0.5, 0.75 and 1.0 mg/ml; c(s) model
[2] = target: Nucleobindin-2 from Gallus gallus (ggNucb2) (Gallus gallus); assay: SAXS; protein 3.5 mg/ml with 5 mM EDTA, 10 mM Ca2+, 10 mM Mg2+ or 100 µM Zn2+; molecular mass from I(0) against BSA
[3] = target: Nucleobindin-2 from Gallus gallus (Gallus gallus); assay: ITC; Ca2+ (4000 µM) titrated into ggNucb2 (50 µM), 25 °C, 20 mM HEPES, 150 mM NaCl, pH 7.5; broad range fit to the AA BB model with ligand-mediated dimerization ((A + A) + B + B to (AA)BB) in SEDPHAT; constant of the step monomers to dimer
[4] = target: Nucleobindin-2 from Homo sapiens (hsNucb2) (Homo sapiens); assay: AUC; sedimentation velocity, 50,000 rpm, 20 °C, buffer C (20 mM Tris-HCl, 150 mM NaCl, pH 7.5) with 5 mM EDTA (apo); protein 0.5, 0.75 and 1.0 mg/ml; c(s) model
[5] = target: Nucleobindin-2 from Homo sapiens (hsNucb2) (Homo sapiens); assay: SAXS; protein 3.5 mg/ml with 5 mM EDTA, 10 mM Ca2+, 10 mM Mg2+ or 100 µM Zn2+; molecular mass from I(0) against BSA

stoichiometry N [1]: > 2 | stoichiometry N [2]: 2
Substance: Nucleobindin-2 from Gallus gallus (ggNucb2) (natural protein)

Kd [3]: 0.016 µM
Substance: Nucleobindin-2 from Gallus gallus (natural protein)

stoichiometry N [4]: 2 | stoichiometry N [5]: 2
Substance: Nucleobindin-2 from Homo sapiens (hsNucb2) (natural protein)
